Reference: US20240132578A1

What was measured:
Assay in all cases: cell-based or functional assay
[1] = target: HIV-1 Env of isolate MGRM-C-027 (clade C) (HIV-1)
[2] = target: HIV-1 Env of isolate 92UG024 (clade D) (HIV-1)
[3] = target: HIV-1 Env of isolate MGRM-C-028 (clade C) (HIV-1)
[4] = target: HIV-1 JR-CSF Env T319A (HIV-1 (isolate JR-CSF, clade B)) (UniProt P20871)
[5] = target: HIV-1 NL43 Env (pseudovirus) (HIV-1)
[6] = target: HIV-1 MGRM-A-010 Env (pseudovirus) (HIV-1)
[7] = target: HIV-1 MGRM-D-018 Env (pseudovirus) (HIV-1)
[8] = target: HIV-1 MGRM-C-026 Env (pseudovirus) (HIV-1)
[9] = target: HIV-1 envelope glycoprotein (Env) of isolate 92TH021 (HIV-1)
[10] = target: HIV-1 92RW020 envelope glycoprotein (Env), clade A pseudovirus (HIV-1)
[11] = target: HIV-1 93IN905 envelope glycoprotein (Env), clade C pseudovirus (HIV-1)
[12] = target: HIV-1 MGRM-C-027 envelope glycoprotein (Env), clade C pseudovirus (HIV-1)
[13] = target: HIV-1 92UG024 envelope glycoprotein (Env), clade D pseudovirus (HIV-1)
[14] = target: HIV-1 92UG005 envelope glycoprotein (Env), clade D pseudovirus (HIV-1)
[15] = target: HIV-1 92RW020 Env (HIV-1 isolate 92RW020 (clade A))
[16] = target: HIV-1 APV17 Env (HIV-1 isolate APV17 (clade B))
[17] = target: HIV-1 MGRM-C-026 envelope glycoprotein (Env) on virus (HIV-1, clade C, isolate MGRM-C-026)
[18] = target: HIV-1 MGRM-D-001 envelope glycoprotein (Env) on virus (HIV-1, clade D, isolate MGRM-D-001)
[19] = target: HIV-1 93IN905 envelope glycoprotein (Env) on virus (HIV-1, clade C, isolate 93IN905)
[20] = target: HIV-1 JRFL envelope glycoprotein (Env) on virus (HIV-1, clade B, isolate JRFL)
[21] = target: HIV-1 MGRM-C-027 envelope glycoprotein (Env) on virus (HIV-1, clade C, isolate MGRM-C-027)
[22] = target: HIV-1 MGRM-C-026 envelope glycoprotein (Env) (HIV-1)
[23] = target: HIV-1 Env of pseudovirus Du172 (HIV-1)
[24] = target: HIV-1 envelope glycoprotein (Env) of isolate MG RM-A-006 (HIV-1)
[25] = target: HIV-1 Env of isolate MGRM-Chronic-B-003 (subtype B), on pseudovirus (HIV-1)
[26] = target: HIV-1 Env of isolate MGRM-F1-014 (subtype F) (HIV-1)
[27] = target: HIV-1 Env of isolate MGRM-Chronic-B-011 (subtype B), on pseudovirus (HIV-1)
[28] = target: HIV-1 Env of isolate MG RM-D-022 (subtype D) (HIV-1)
[29] = target: HIV-1 envelope glycoprotein (Env) of isolate MG RM-A-001 (HIV-1)
[30] = target: HIV-1 envelope glycoprotein (Env) of isolate 92UG037 (HIV-1)
[31] = target: HIV-1 JR-CSF Env R315A (HIV-1 (isolate JR-CSF, clade B)) (UniProt P20871)

Chain of 5329_C19 (PGT-136) (antibody) (VH): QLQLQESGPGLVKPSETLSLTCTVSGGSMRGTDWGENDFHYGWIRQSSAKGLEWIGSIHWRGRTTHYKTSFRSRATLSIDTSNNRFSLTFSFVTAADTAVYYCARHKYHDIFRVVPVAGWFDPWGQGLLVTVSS
Chain of 5329_C19 (PGT-136) (antibody) (VL): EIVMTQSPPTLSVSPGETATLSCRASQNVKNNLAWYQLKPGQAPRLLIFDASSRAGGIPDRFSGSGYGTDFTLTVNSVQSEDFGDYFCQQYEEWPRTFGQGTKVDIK
Chain of 1443_C16 (PG16) (TCN-116) (antibody) (VH): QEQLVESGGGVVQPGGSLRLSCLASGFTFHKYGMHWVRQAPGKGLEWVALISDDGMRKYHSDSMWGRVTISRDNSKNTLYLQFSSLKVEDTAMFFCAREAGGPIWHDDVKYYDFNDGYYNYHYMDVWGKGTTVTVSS
Chain of 1443_C16 (PG16) (TCN-116) (antibody) (VL): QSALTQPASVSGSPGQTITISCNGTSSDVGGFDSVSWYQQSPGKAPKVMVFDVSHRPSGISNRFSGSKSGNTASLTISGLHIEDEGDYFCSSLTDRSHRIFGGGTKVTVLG

Question: Which neutralization IC50 [1] does the source give for 1496_C09 (PG9) (TCN-109) (antibody) here?
Answer: 2.45 µg/mL

Question: And the neutralization IC50 [2]?
Answer: 1.91 µg/mL

Question: And the Neutralization IC80 [3]?
Answer: 0.645 µg/mL

Question: And the Neutralization IC90 [3]?
Answer: 1.65 µg/mL

Question: And the Neutralization IC95 [3]?
Answer: 3.71 µg/mL

Question: And the neutralization IC50 [3]?
Answer: 0.121 µg/mL

Question: With 5147_N06 (PGT-130) (antibody) as the substance, how does the Fold IC50 increase relative to wild-type [4] read?
Answer: 1.6 fold

Question: With 5123_A06 (PGT-125) (antibody) as the substance, how does the Neutralization by PGT-125, IC50 [5] read?
Answer: > 10 µg/mL

Question: What about the Neutralization by PGT-125, IC80 [5] of the same substance?
Answer: > 10 µg/mL

Question: What about the Neutralization by PGT-125, IC90 [5] of the same substance?
Answer: > 10 µg/mL

Question: And the Neutralization by PGT-125, IC95 [5]?
Answer: > 10 µg/mL

Question: And the Neutralization by PGT-125, IC50 [6]?
Answer: 0.0055 µg/mL

Question: What about the Neutralization by PGT-125, IC80 [6] of the same substance?
Answer: 0.024 µg/mL

Question: What about the Neutralization by PGT-125, IC90 [6] of the same substance?
Answer: 0.0575 µg/mL

Question: And the Neutralization by PGT-125, IC95 [6]?
Answer: 0.131 µg/mL

Question: What about the Neutralization by PGT-125, IC50 [7] of the same substance?
Answer: 0.0382 µg/mL

Question: What about the Neutralization by PGT-125, IC80 [7] of the same substance?
Answer: 0.144 µg/mL

Question: And the Neutralization by PGT-125, IC90 [7]?
Answer: 0.339 µg/mL

Question: And the Neutralization by PGT-125, IC95 [7]?
Answer: 0.892 µg/mL

Question: What about the Neutralization by PGT-125, IC50 [8] of the same substance?
Answer: 0.0106 µg/mL

Question: What about the Neutralization by PGT-125, IC80 [8] of the same substance?
Answer: 0.035 µg/mL

Question: And the Neutralization by PGT-125, IC90 [8]?
Answer: 0.0705 µg/mL

Question: And the Neutralization by PGT-125, IC95 [8]?
Answer: 0.134 µg/mL

Question: 5141_B17 (PGT-126) (antibody) was tested. Which Neutralization IC80 [9] did it give?
Answer: 1.62 µg/mL

Question: And the Neutralization IC90 [9]?
Answer: 6.91 µg/mL

Question: What about the Neutralization IC95 [9] of the same substance?
Answer: > 10 µg/mL

Question: And the neutralization IC50 [9]?
Answer: 0.115 µg/mL

Question: How did the IC50, pseudovirus neutralization [10] turn out when 4858_P08 (PGT-123) (antibody) was run?
Answer: 0.0038 µg/mL

Question: And the IC80 (pseudovirus neutralization) [10]?
Answer: 0.0106 µg/mL

Question: And the IC90 (pseudovirus neutralization) [10]?
Answer: 0.0194 µg/mL

Question: And the IC95 (pseudovirus neutralization) [10]?
Answer: 0.0343 µg/mL

Question: What about the IC50, pseudovirus neutralization [11] of the same substance?
Answer: 0.0071 µg/mL

Question: And the IC80 (pseudovirus neutralization) [11]?
Answer: 0.0281 µg/mL

Question: What about the IC90 (pseudovirus neutralization) [11] of the same substance?
Answer: 0.0625 µg/mL

Question: What about the IC95 (pseudovirus neutralization) [11] of the same substance?
Answer: 0.131 µg/mL

Question: What about the IC50, pseudovirus neutralization [12] of the same substance?
Answer: 0.0169 µg/mL

Question: And the IC80 (pseudovirus neutralization) [12]?
Answer: 0.149 µg/mL

Question: What about the IC90 (pseudovirus neutralization) [12] of the same substance?
Answer: > 10 µg/mL

Question: And the IC95 (pseudovirus neutralization) [12]?
Answer: > 10 µg/mL

Question: What about the IC50, pseudovirus neutralization [13] of the same substance?
Answer: > 10 µg/mL

Question: What about the IC80 (pseudovirus neutralization) [13] of the same substance?
Answer: > 10 µg/mL

Question: And the IC90 (pseudovirus neutralization) [13]?
Answer: > 10 µg/mL

Question: And the IC95 (pseudovirus neutralization) [13]?
Answer: > 10 µg/mL

Question: What about the IC50, pseudovirus neutralization [14] of the same substance?
Answer: 2.49 µg/mL

Question: What about the IC80 (pseudovirus neutralization) [14] of the same substance?
Answer: > 10 µg/mL

Question: And the IC90 (pseudovirus neutralization) [14]?
Answer: > 10 µg/mL

Question: And the IC95 (pseudovirus neutralization) [14]?
Answer: > 10 µg/mL

Question: How did the Neutralization IC80 [15] turn out when 4838_L06 (PGT-121) (antibody) was run?
Answer: 0.0188 µg/mL

Question: What about the Neutralization IC90 [15] of the same substance?
Answer: 0.0361 µg/mL

Question: And the Neutralization IC95 [15]?
Answer: 0.0671 µg/mL

Question: And the Neutralization IC80 [16]?
Answer: 0.371 µg/mL

Question: And the Neutralization IC90 [16]?
Answer: 0.799 µg/mL

Question: What about the Neutralization IC95 [16] of the same substance?
Answer: 1.55 µg/mL

Question: Which results are given for 4877_D15 (PGT-122) (antibody)?
Answer: Neutralization IC80 [17]: 0.037 µg/mL; Neutralization IC90 [17]: 0.0849 µg/mL; Neutralization IC95 [17]: 0.181 µg/mL; neutralization IC50 [17]: 0.0089 µg/mL; Neutralization IC80 [18]: 4.48 µg/mL; Neutralization IC90 [18]: > 10 µg/mL; Neutralization IC95 [18]: > 10 µg/mL; neutralization IC50 [18]: 0.867 µg/mL; Neutralization IC80 [19]: 0.0505 µg/mL; Neutralization IC90 [19]: 0.108 µg/mL; Neutralization IC95 [19]: 0.217 µg/mL; neutralization IC50 [19]: 0.0138 µg/mL; Neutralization IC80 [20]: 0.166 µg/mL; Neutralization IC90 [20]: 0.342 µg/mL; Neutralization IC95 [20]: 0.659 µg/mL; neutralization IC50 [20]: 0.0471 µg/mL; Neutralization IC80 [21]: 0.499 µg/mL; Neutralization IC90 [21]: > 10 µg/mL; Neutralization IC95 [21]: > 10 µg/mL; neutralization IC50 [21]: 0.0388 µg/mL

Question: Which Neutralization IC80 [22] does the source give for 5329_C19 (PGT-136) (antibody) here?
Answer: 0.0285 µg/mL

Question: And the Neutralization IC90 [22]?
Answer: 0.0687 µg/mL

Question: What about the Neutralization IC95 [22] of the same substance?
Answer: 0.159 µg/mL

Question: And the neutralization IC50 [22]?
Answer: 0.0065 µg/mL

Question: 1443_C16 (PG16) (TCN-116) (antibody) was tested. Which IC50, pseudovirus neutralization (TZM-bl assay) [23] did it give?
Answer: < 0.01 µg/mL

Question: For PGV04 (antibody), which IC50 [24] is on record?
Answer: 0.244 µg/mL

Question: What about the IC50, single-round pseudovirus neutralization [25] of the same substance?
Answer: 0.258 µg/mL

Question: What about the IC50 (µg/mL), pseudovirus neutralization [26] of the same substance?
Answer: 0.02 µg/mL

Question: And the IC50, single-round pseudovirus neutralization [27]?
Answer: 0.497 µg/mL

Question: What about the IC50 (µg/mL), pseudovirus neutralization [28] of the same substance?
Answer: > 50 µg/mL

Question: What about the IC50 [29] of the same substance?
Answer: 6.78 µg/mL

Question: And the IC50 [30]?
Answer: 0.145 µg/mL

Question: With 5343_B08 (PGT-135) (antibody) as the substance, how does the Fold IC50 increase relative to wild-type [31] read?
Answer: 1.8 fold
